Measurements taken from US20240261333A1 (published 2024).

What was measured:
Assay in all cases: co-IP with anti-FLAG, mass spectrometry; lysate of cells with N-FLAG B3GNT2
[1] = target: RPL9 (human, UniProt P32969 1-192)
[2] = target: T1, CCT2 (human, UniProt P78371-2 1-488, limits assumed)
T1 construct: also called NP_001185771.1 (+1)
T1 sequence (looked up): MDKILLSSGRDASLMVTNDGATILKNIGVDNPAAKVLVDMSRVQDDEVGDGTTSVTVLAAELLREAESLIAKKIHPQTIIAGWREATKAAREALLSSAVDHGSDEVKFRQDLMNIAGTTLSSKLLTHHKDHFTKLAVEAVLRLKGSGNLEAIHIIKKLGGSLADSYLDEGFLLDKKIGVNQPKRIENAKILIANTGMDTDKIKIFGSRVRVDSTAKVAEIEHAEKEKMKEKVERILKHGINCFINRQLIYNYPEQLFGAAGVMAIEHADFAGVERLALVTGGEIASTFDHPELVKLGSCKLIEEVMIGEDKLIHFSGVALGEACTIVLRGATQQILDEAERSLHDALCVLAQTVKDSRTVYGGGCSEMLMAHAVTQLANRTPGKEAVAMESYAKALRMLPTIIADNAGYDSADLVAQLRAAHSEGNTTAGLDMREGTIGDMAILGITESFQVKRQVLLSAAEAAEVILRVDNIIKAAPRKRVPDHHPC

[3] = target: T2, MAGT1 (human, UniProt Q9H0U3 30-335, limits assumed)
T2 construct: also called NP_115497.4
T2 sequence (looked up): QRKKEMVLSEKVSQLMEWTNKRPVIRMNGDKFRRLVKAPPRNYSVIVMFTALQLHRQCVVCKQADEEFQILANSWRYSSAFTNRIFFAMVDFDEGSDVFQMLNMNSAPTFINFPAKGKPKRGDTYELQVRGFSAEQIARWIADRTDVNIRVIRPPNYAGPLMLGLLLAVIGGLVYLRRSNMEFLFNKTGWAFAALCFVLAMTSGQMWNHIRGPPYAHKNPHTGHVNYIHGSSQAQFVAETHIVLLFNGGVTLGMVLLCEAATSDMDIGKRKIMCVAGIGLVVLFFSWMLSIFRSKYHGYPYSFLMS

[4] = target: T3, TOR1AIP2 (human, UniProt Q8NFQ8 2-470)
T3 construct: also called NP_001336864.1 (+1)
T3 sequence (Q8NFQ8 2-470 limits assumed): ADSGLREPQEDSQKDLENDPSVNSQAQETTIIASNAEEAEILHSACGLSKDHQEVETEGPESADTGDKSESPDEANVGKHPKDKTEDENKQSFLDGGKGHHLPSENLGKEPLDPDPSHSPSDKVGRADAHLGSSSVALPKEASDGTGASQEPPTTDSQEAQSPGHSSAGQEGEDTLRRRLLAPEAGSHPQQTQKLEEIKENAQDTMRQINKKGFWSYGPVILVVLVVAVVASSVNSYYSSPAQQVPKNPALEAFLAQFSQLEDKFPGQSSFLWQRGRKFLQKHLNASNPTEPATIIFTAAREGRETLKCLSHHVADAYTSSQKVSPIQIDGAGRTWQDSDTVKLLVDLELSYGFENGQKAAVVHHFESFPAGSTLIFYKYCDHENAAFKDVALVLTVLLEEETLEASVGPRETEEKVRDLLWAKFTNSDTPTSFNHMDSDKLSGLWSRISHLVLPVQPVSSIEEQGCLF

- co-IP mass spectrometry count [1]: 0
- co-IP mass spectrometry count [2]: 0
- co-IP mass spectrometry count [3]: 0
- co-IP mass spectrometry count [4]: 0
B1: N-terminal FLAG tagged B3GNT2 (enzyme, human, UniProt Q9NY97 1-397, looked up)
chain: MSVGRRRIKLLGILMMANVFIYFIMEVSKSSSQEKNGKGEVIIPKEKFWKISTPPEAYWNREQEKLNRQYNPILSMLTNQTGEAGRLSNISHLNYCEPDLRVTSVVTGFNNLPDRFKDFLLYLRCRNYSLLIDQPDKCAKKPFLLLAIKSLTPHFARRQAIRESWGQESNAGNQTVVRVFLLGQTPPEDNHPDLSDMLKFESEKHQDILMWNYRDTFFNLSLKEVLFLRWVSTSCPDTEFVFKGDDDVFVNTHHILNYLNSLSKTKAKDLFIGDVIHNAGPHRDKKLKYYIPEVVYSGLYPPYAGGGGFLYSGHLALRLYHITDQVHLYPIDDVYTGMCLQKLGLVPEKHKGFRTFDIEEKNKNNICSYVDLMLVHSRKPQEMIDIWSQLQSAHLKC
notes: Bait of the co-IP; pulled down with mouse anti-FLAG (Millipore Sigma F3165) from cell lysate; also called N-FLAG B3GNT2; N-term FLAG; not shown: N-terminal FLAG tag
